In patent publication US20190343962A1 (GENAGON THERAPEUTICS, published 2019):

T1: native CLPTM1 in membrane-permeabilised O-876 cells (Homo sapiens (Human), UniProt O96005 2-669)
T1 construct: The protein was stained inside permeabilised cells, not only at the surface; also called native target; 0-876 cells expressing native CLPTM1
T1 sequence: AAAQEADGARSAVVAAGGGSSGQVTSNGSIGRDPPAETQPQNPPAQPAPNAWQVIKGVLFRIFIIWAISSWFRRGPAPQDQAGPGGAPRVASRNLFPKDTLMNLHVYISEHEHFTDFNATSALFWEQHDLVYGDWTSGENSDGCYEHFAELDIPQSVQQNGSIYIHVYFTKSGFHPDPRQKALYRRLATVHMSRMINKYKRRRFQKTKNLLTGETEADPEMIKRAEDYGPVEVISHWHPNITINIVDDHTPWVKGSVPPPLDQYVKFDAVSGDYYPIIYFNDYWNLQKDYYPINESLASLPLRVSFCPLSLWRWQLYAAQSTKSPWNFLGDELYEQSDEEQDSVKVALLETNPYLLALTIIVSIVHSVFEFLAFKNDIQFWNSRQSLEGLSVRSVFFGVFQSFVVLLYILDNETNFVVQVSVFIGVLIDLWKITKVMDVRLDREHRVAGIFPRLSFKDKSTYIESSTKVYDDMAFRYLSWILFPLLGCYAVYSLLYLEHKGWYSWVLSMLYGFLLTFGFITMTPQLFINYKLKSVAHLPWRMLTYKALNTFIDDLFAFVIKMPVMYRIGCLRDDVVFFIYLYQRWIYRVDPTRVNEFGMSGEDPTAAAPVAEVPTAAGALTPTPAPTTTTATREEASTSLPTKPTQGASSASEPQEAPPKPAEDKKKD


How the values were obtained:
[1] = target: native CLPTM1 in membrane-permeabilised O-876 cells (Homo sapiens (Human)) (UniProt O96005); assay: flow cytometry on permeabilised O-876 cells; half-maximal binding
[2] = target: native CLPTM1 in membrane-permeabilised O-876 cells (Homo sapiens (Human)) (UniProt O96005); assay: flow cytometry on permeabilised O-876 cells, 10x dilution series; half-maximal binding
[3] = target: T1, native CLPTM1 in membrane-permeabilised …; assay: as above
Experimental: CLPTM1 binding in permeabilised 0-876 cells expressing native CLPTM1 was measured in a 10× dilution series. […] The AbCam antibody also retained greater than 50% of its maximum binding at 0.1 μg/ml. The 59D04 antibody retained greater than 50% of its maximum binding at 1 μg/ml, whilst the Santa Cruz antibody had less than 50% of its maximum binding at this level.
Affinity of antibodies was determined by finding the half-maximal binding on the native target in a flow cytometry assay. Since the native target is found inside most cells and rarely on the cell surface, the assay was performed using plasma membrane-permeabilised cells, an intra-cellular staining protocol. Using the native target is more applicable when evaluating and comparing various antibodies as it is the true antigen to be bound in a therapeutic setting in vivo. 0-876 cells were permeabilised with BD-fix and permeabilisation buffer (554722 BD-Biosciences). Antibody at various concentrations was incubated with cells for 30 minutes at +4° C., then washed twice with wash buffer (BD-Biosciences 554723). […] Three washes followed and fluorescence intensity in cells was quantified by FACS CantoII in PBS with cells in 2% FCS buffer.

[4] = target: T1, native CLPTM1 in membrane-permeabilised …; assay: flow cytometry on permeabilised O-876 cells; half-maximal binding
Experimental: (§1) Affinity of antibodies was determined by finding the half-maximal binding on the native target in a flow cytometry assay. Since the native target is found inside most cells and rarely on the cell surface, the assay was performed using plasma membrane-permeabilised cells, an intra-cellular staining protocol. Using the native target is more applicable when evaluating and comparing various antibodies as it is the true antigen to be bound in a therapeutic setting in vivo. 0-876 cells were permeabilised with BD-fix and permeabilisation buffer (554722 BD-Biosciences). Antibody at various concentrations was incubated with cells for 30 minutes at +4° C., then washed twice with wash buffer (BD-Biosciences 554723). Secondary antibodies a-mouse IgG-PE (Molecular Probes) was used for mouse monoclonal antibodies according to manufacturer's instructions and a-rabbit-IgG-PE (Molecular Probes) for rabbit monoclonal antibody (Abcam ERP8800). Three washes followed and fluorescence intensity in cells was quantified by FACS CantoII in PBS with cells in 2% FCS buffer.
(§2) The assay was performed on O-876 cancer cell line.

[5] = target: T1, native CLPTM1 in membrane-permeabilised …; assay: flow cytometry on permeabilised O-876 cells, antibody dilution series, PE-labelled secondary antibody
Experimental: as §1, §2

Molecule	EC50 [1] [µg/mL]	EC50 [2] [µg/mL]	EC50 [3] [µg/mL]	EC50 [4] [µg/mL]	Kd [5] [nM]
rabbit monoclonal anti-CLPTM1 antibody EPR8800 (RabMab, Abcam)	< 1	< 0.1			
anti-CLPTM1 antibody 59D04 (format in the assay not stated) (antibody, V domains shown, Fully human antibody derived by phage display) VH: EVQLVESGGGVVQPGRSLRLSCAASGFTFSTYAMHWVRQAPGKGLEWVAVISYDGTNKYYADSVKGRFTIFRDNSKNTLYLQMNSLRAEDTAVYYCGSGSYWGQGTLVTVSS VL: QPVLTQPASVSGSPGQSITISCTGTSSDVGGYNYVSWYQQHPGKAPKLMIYEVTNRPSGVSDRFSGSKSGNTASLTISGLQAEDEADYYCSSYKSSNTVVFGGGTKVTVL			< 1		
anti-CLPTM1 mouse monoclonal antibody 7G12 (antibody, IgG1, V domains shown, Mouse monoclonal, IgG1 heavy chain, kappa light chain; The printed VL ends in 'TKL.' and may be incomplete; also called CLPTM1 clone 7G12 (IgG1)) VH: QVQLQQSGTELVRPGTSVKVSCKASGYAFTNYLIEWVKQRPGQGLEWIGVINPGSGGTRYNEKFKGKATLTADKSSTTAHMQLSSLTSDDSAVYCARWGGNYSGYAMDYWGQGTSVTVSS VL: QIVLTQSPVIMSASPGEKVTITCSASSSVSYMHWFQQKPGTSPKLWIYSTSNLASGVPARFSGSGSGTSYSLTISRMEAEDAATYYCQQRSSYPPTFGAGTKL			< 0.1	< 1	< 1
